In US20210071139A1:

Experiments:
Experiment in all cases: TOX IP-MS, EL4 nuclear extract, MiST
Acad9 = Acad9 (UniProt Q8JZN5)
Acot8 = Acot8 (UniProt P58137)
Acsl4 = Acsl4 (UniProt Q9QUJ7)
Cdadc1 = Cdadc1 (UniProt Q8BMD5)
Cdc73 = Cdc73 (UniProt Q8JZM7)
Dnajc9 = Dnajc9 (UniProt Q91WN1)
Dync1li1 = Dync1li1 (UniProt Q8R1Q8)
Fxr1 = Fxr1 (UniProt Q61584)
Ikbkap = Ikbkap (UniProt Q7TT37)
Mphosph10 = Mphosph10 (UniProt Q810V0)
Mrpl46 = Mrpl46 (UniProt Q9EQI8)
Rcn2 = Rcn2 (UniProt Q8BP92)
Rpl37a = Rpl37a (UniProt P61514)
Sap130 = Sap130 (UniProt Q8BIH0)
Thoc5 = Thoc5 (UniProt Q8BKT7)
Utp14a = Utp14a (UniProt Q640M1)
env = molecular target: env

Utp14a, sequence (Q640M1 whole entry): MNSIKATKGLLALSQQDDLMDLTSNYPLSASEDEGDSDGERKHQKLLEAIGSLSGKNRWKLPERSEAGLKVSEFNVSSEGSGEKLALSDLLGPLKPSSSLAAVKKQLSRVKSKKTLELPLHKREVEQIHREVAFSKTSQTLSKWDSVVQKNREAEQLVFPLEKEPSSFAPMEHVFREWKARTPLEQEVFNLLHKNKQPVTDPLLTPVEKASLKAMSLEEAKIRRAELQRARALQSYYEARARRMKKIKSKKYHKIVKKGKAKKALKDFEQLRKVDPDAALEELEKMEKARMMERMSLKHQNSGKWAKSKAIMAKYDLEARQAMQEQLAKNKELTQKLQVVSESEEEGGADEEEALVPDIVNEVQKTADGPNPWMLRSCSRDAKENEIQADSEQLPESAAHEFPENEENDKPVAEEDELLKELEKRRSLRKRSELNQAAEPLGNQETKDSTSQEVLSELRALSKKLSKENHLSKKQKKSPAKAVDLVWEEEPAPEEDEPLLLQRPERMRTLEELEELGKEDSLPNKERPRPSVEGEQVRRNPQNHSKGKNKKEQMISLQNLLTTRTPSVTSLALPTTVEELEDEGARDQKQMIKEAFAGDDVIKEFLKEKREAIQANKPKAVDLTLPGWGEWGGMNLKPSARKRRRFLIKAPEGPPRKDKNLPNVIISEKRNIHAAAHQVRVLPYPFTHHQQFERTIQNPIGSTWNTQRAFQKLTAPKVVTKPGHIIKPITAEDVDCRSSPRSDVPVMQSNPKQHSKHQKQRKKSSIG
Acad9, sequence (Q8JZN5 42-625 limits assumed): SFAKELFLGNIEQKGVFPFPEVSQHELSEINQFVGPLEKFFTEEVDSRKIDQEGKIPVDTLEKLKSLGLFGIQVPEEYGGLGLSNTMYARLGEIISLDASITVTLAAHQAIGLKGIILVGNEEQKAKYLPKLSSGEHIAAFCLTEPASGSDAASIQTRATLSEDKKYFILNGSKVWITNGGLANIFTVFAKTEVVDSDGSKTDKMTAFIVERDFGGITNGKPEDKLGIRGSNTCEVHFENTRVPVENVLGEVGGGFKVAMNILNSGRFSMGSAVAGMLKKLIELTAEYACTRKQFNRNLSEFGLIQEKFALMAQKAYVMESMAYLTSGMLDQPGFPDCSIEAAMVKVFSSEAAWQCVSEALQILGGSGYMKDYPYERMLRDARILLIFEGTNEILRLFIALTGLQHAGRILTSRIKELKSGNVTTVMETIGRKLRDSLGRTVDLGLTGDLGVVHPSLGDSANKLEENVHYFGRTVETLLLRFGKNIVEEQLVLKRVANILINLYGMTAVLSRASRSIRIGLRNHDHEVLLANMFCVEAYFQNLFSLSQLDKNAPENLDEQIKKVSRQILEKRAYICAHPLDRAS
Acsl4, sequence (Q9QUJ7 whole entry): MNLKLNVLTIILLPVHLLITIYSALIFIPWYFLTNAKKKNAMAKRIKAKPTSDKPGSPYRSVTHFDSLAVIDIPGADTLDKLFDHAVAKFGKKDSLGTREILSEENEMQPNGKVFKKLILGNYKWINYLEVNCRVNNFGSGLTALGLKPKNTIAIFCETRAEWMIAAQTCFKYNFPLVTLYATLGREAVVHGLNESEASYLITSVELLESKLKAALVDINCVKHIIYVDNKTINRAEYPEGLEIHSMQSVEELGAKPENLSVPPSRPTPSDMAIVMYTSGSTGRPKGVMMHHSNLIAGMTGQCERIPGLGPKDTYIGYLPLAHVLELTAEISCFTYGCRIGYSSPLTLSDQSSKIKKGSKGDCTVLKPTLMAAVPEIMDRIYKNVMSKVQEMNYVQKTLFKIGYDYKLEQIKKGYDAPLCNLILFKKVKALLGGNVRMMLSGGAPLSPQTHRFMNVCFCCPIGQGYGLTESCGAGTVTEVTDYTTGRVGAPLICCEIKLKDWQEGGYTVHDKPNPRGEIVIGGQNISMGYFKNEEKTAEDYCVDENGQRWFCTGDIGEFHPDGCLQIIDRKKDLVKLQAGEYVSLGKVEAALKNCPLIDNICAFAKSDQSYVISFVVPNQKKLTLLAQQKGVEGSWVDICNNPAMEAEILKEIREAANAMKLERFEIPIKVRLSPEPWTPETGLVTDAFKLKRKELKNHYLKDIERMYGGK
Acot8, sequence (P58137 whole entry): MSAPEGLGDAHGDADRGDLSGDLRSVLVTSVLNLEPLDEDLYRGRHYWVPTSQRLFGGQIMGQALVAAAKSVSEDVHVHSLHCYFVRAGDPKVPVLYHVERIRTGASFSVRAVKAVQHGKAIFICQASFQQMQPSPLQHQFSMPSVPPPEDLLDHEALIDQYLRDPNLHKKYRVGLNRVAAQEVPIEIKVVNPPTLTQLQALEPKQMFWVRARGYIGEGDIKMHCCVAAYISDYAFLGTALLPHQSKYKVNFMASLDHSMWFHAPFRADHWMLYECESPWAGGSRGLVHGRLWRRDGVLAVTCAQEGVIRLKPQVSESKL
Cdadc1, sequence (Q8BMD5 whole entry): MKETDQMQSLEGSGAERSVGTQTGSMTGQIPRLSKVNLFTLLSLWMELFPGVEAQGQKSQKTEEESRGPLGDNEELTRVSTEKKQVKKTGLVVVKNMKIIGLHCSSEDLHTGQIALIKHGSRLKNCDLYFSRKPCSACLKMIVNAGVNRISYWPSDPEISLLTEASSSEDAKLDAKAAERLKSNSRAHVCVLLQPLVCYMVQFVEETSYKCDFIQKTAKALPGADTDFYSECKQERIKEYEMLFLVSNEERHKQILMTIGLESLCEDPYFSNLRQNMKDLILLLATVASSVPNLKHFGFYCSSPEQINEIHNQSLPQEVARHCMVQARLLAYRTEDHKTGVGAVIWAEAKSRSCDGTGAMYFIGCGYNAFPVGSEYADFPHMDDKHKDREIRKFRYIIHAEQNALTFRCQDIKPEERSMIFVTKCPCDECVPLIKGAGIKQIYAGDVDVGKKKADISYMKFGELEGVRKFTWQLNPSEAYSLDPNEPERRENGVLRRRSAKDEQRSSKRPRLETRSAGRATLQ
Fxr1, sequence (Q61584 2-677 limits assumed): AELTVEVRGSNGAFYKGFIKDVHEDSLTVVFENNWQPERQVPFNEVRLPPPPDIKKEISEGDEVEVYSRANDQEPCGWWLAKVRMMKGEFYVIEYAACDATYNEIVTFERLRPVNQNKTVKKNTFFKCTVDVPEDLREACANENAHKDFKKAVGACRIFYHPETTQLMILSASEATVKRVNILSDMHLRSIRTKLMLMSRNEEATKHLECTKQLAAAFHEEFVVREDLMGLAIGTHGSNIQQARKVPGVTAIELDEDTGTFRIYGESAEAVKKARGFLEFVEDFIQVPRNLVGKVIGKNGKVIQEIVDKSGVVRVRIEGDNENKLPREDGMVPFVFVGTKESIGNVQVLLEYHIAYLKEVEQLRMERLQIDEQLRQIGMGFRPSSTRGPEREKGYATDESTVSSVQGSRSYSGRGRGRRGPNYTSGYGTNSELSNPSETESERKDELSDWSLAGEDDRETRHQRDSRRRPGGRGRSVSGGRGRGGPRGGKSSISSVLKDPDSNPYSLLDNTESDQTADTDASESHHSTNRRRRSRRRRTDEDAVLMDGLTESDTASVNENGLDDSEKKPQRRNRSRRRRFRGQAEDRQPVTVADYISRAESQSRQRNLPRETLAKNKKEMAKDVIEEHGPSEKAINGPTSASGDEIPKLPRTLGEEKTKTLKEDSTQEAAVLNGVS
Mphosph10, sequence (Q810V0 whole entry): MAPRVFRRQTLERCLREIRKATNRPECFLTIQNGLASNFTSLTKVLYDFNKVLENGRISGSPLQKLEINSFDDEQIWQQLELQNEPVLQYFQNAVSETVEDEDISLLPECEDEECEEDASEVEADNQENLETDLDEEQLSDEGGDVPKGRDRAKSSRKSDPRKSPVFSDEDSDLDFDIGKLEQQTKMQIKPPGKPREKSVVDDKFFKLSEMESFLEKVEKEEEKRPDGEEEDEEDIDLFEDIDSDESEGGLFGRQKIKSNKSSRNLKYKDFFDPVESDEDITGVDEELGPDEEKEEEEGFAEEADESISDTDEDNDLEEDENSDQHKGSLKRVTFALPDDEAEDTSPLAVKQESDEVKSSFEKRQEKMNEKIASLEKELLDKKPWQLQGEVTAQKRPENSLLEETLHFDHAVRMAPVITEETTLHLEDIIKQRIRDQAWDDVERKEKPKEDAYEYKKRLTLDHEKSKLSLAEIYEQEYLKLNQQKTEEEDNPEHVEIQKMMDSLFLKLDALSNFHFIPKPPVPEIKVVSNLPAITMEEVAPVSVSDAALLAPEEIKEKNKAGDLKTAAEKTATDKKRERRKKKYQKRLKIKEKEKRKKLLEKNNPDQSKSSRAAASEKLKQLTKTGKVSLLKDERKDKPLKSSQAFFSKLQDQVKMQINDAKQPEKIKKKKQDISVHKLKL
Tox, sequence (Q66JW3 whole entry): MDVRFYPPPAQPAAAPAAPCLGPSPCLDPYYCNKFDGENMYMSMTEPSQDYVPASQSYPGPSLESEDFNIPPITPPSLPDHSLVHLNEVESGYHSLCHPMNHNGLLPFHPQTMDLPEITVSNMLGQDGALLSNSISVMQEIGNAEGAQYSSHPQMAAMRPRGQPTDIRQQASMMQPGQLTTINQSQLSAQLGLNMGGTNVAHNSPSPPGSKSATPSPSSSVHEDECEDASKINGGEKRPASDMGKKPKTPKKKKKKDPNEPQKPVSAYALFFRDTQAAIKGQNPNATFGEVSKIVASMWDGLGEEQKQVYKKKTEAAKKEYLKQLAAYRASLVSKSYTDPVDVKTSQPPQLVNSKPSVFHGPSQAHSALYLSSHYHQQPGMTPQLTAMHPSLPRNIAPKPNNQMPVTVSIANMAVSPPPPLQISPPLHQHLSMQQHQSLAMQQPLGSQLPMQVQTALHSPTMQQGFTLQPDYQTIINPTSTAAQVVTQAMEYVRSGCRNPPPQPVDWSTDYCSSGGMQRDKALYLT

With Tox (from UniProt Q66JW3 1-526) as the substance, how does the Abundance (Acad9) read?
The Abundance was 7.35e-06.

And the MiST Score (Acad9)?
Its MiST Score is 0.919.

What about the Reproducibility (Acad9) of the same substance?
The Reproducibility was 0.846.

What about the Specificity (Acad9) of the same substance?
Its Specificity is 0.959.

And the Abundance (Acot8)?
The Abundance was 2.29e-05.

And the MiST Score (Acot8)?
Its MiST Score is 0.989.

What about the Reproducibility (Acot8) of the same substance?
Its Reproducibility is 0.983.

What about the Specificity (Acot8) of the same substance?
Its Specificity is 1.

And the Abundance (Acsl4)?
The Abundance was 2.9e-06.

And the MiST Score (Acsl4)?
The MiST Score was 0.968.

What about the Reproducibility (Acsl4) of the same substance?
The Reproducibility was 0.914.

And the Specificity (Acsl4)?
The Specificity was 1.

And the Abundance (Cdadc1)?
The Abundance was 0.00034.

What about the MiST Score (Cdadc1) of the same substance?
Its MiST Score is 0.95.

And the Reproducibility (Cdadc1)?
The Reproducibility was 0.882.

And the Specificity (Cdadc1)?
Its Specificity is 0.988.

And the Abundance (Cdc73)?
The Abundance was 4.06e-05.

And the MiST Score (Cdc73)?
The MiST Score was 0.896.

And the Reproducibility (Cdc73)?
Its Reproducibility is 0.886.

What about the Specificity (Cdc73) of the same substance?
The Specificity was 0.908.

And the Abundance (Dnajc9)?
Its Abundance is 5.16e-05.

What about the MiST Score (Dnajc9) of the same substance?
Its MiST Score is 0.961.

And the Reproducibility (Dnajc9)?
Its Reproducibility is 0.892.

What about the Specificity (Dnajc9) of the same substance?
The Specificity was 1.

What about the Abundance (Dync1li1) of the same substance?
Its Abundance is 5.91e-06.

And the MiST Score (Dync1li1)?
Its MiST Score is 0.976.

What about the Reproducibility (Dync1li1) of the same substance?
Its Reproducibility is 0.941.

And the Specificity (Dync1li1)?
Its Specificity is 1.

What about the Abundance (Fxr1) of the same substance?
Its Abundance is 1.59e-05.

And the MiST Score (Fxr1)?
The MiST Score was 0.915.

And the Reproducibility (Fxr1)?
Its Reproducibility is 0.924.

What about the Specificity (Fxr1) of the same substance?
The Specificity was 0.919.

What about the Abundance (Ikbkap) of the same substance?
The Abundance was 1.13e-06.

And the MiST Score (Ikbkap)?
The MiST Score was 0.913.

And the Reproducibility (Ikbkap)?
Its Reproducibility is 0.737.

And the Specificity (Ikbkap)?
The Specificity was 1.

And the Abundance (Mphosph10)?
Its Abundance is 1.33e-05.

And the MiST Score (Mphosph10)?
Its MiST Score is 0.97.

What about the Reproducibility (Mphosph10) of the same substance?
Its Reproducibility is 0.924.

And the Specificity (Mphosph10)?
The Specificity was 1.

What about the Abundance (Mrpl46) of the same substance?
Its Abundance is 3.3e-05.

And the MiST Score (Mrpl46)?
Its MiST Score is 0.982.

What about the Reproducibility (Mrpl46) of the same substance?
The Reproducibility was 0.962.

And the Specificity (Mrpl46)?
The Specificity was 1.

And the Abundance (Rcn2)?
Its Abundance is 1.4e-05.

What about the MiST Score (Rcn2) of the same substance?
Its MiST Score is 0.992.

What about the Reproducibility (Rcn2) of the same substance?
Its Reproducibility is 0.993.

What about the Specificity (Rcn2) of the same substance?
The Specificity was 1.

And the Abundance (Rpl37a)?
Its Abundance is 0.00127.

What about the MiST Score (Rpl37a) of the same substance?
The MiST Score was 0.911.

What about the Reproducibility (Rpl37a) of the same substance?
The Reproducibility was 0.731.

And the Specificity (Rpl37a)?
The Specificity was 1.

What about the Abundance (Sap130) of the same substance?
Its Abundance is 5.37e-06.

And the MiST Score (Sap130)?
The MiST Score was 0.971.

And the Reproducibility (Sap130)?
The Reproducibility was 0.926.

What about the Specificity (Sap130) of the same substance?
Its Specificity is 1.

And the Abundance (Thoc5)?
The Abundance was 3.93e-06.

What about the MiST Score (Thoc5) of the same substance?
Its MiST Score is 0.987.

And the Reproducibility (Thoc5)?
The Reproducibility was 0.977.

What about the Specificity (Thoc5) of the same substance?
Its Specificity is 1.

What about the Abundance (Utp14a) of the same substance?
The Abundance was 3.2e-06.

What about the MiST Score (Utp14a) of the same substance?
Its MiST Score is 0.93.

What about the Reproducibility (Utp14a) of the same substance?
The Reproducibility was 0.792.

And the Specificity (Utp14a)?
Its Specificity is 1.

What about the Abundance (env) of the same substance?
The Abundance was 0.000113.

What about the MiST Score (env) of the same substance?
The MiST Score was 0.977.

What about the Reproducibility (env) of the same substance?
Its Reproducibility is 0.946.

And the Specificity (env)?
The Specificity was 1.
